Test results published in US20240391996A1.

Experiments:
[1] = biological target: recombinant human GH (Pharmaceutical and Medical Device Regulatory Science Society of Japan) (human) (UniProt P01241); test: GH-GHR binding inhibition ELISA: biotin-labeled GH (5.5 ng/mL) on captured GHR-hFc, antibody varied
[2] = biological target: recombinant human GH (Pharmaceutical and Medical Device Regulatory Science Society of Japan) (human) (UniProt P01241); test: cell-based or functional assay

Chain of recombinant human GH (Pharmaceutical and Medical Device Regulatory Science Society of Japan) (human) (P01241 27-217 limits assumed): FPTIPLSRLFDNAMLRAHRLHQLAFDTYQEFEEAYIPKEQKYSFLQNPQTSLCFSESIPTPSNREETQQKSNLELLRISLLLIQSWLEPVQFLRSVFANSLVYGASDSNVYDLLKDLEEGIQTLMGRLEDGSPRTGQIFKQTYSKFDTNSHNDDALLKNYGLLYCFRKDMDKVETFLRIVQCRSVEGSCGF

IC50 [1]: 6.86 nM
GH-dependent Nb2 cell proliferation inhibitory activity (IC50) [2]: 21.5 nM
Substance: anti-GH mouse mAb (MAB1067, R&D Systems, Inc.) (antibody)
